Laboratory results reported in patent US20260139023A1.

Molecular target: full-length integrin αVβ5 ectopically expressed on HEK293T cells (UniProt P06756)
Experiment: cell-based or functional assay

Chain of full-length integrin αVβ5 ectopically expressed on HEK293T cells (P06756 31-1048 limits assumed, chain 1 of 2): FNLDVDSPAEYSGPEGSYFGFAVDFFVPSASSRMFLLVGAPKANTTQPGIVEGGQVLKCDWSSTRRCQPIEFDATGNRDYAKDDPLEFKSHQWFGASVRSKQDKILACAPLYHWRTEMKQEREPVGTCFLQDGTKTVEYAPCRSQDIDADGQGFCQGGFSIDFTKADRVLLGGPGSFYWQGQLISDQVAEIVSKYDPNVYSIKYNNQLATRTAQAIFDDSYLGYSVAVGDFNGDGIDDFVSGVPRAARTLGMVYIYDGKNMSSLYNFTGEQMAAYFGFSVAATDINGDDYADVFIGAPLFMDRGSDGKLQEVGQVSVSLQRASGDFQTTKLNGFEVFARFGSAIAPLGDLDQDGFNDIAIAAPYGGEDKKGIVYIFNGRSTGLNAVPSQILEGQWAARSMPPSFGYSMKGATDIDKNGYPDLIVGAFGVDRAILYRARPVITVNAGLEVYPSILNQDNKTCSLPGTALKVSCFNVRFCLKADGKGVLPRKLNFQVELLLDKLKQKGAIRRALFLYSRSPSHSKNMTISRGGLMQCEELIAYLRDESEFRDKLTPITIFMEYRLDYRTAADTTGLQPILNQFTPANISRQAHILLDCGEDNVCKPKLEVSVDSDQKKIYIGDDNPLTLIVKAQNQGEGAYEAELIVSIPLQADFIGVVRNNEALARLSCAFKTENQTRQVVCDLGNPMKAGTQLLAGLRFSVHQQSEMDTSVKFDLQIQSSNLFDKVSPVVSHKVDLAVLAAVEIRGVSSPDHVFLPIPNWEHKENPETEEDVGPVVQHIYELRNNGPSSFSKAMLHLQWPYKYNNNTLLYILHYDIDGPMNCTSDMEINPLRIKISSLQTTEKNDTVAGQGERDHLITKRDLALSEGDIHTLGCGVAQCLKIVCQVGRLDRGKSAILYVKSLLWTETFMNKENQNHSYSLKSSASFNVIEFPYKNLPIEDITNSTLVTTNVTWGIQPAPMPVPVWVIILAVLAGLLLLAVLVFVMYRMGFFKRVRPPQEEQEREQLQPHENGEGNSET
Chain of full-length integrin αVβ5 ectopically expressed on HEK293T cells (P18084 24-799 limits assumed, chain 2 of 2, further chain): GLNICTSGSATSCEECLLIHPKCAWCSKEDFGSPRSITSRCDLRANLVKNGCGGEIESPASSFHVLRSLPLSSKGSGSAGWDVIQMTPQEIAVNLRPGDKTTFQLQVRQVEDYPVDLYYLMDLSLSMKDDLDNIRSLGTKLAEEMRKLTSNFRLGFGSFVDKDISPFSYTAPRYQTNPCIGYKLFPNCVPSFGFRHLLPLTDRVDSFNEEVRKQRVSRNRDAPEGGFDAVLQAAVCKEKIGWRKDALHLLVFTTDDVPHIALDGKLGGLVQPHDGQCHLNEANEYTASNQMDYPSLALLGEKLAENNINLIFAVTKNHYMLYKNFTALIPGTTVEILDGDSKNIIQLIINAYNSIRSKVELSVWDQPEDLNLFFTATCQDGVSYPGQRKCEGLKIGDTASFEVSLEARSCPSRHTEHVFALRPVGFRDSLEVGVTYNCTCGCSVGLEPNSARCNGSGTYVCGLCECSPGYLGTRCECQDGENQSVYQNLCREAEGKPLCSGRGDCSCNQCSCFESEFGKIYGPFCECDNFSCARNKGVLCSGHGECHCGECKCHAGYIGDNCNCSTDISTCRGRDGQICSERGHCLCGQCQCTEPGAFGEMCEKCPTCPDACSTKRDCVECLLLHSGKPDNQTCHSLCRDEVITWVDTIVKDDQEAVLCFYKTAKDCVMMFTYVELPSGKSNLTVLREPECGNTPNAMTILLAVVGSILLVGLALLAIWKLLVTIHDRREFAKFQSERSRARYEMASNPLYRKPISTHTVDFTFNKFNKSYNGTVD

concentration at maximal integrin signaling (pFAK western blot, HEK293T cells pretreated with Hsp90α): 0.1 nM
fold more potent integrin signaling than WT irisin: 5 to 10 fold
Substance: irisin N45Q mutant (irisin glycosylation mutant, recombinant, from mammalian Expi293 cells) (from UniProt Q8K3V5 60-171) (ligand)
